# System: NCI-H460 tumor-bearing mice (lung cancer)
# Assay: Biodistribution: lutetium accumulation in tumor, plasma and healthy tissues by ICP-MS
# Format: in vivo
# Conditions: for T/K (Tumor/Kidney ratio) / T/L (Tumor/Liver ratio) / T/P (Tumor/Plasma ratio) / Kidney uptake, % ID/g 24 h / Liver uptake, % ID/g 24 h / Plasma, % ID/g 24 h / Tumor uptake, % ID/g, 24 h / % ID/g uptake, H460 tumor, 24 h / % ID/g uptake, Kidney, 24 h / % ID/g uptake, Liver, 24 h / % ID/g uptake, Plasma, 24 h: 24 h; for Kidney uptake, % ID/g 24 h / Liver uptake, % ID/g 24 h / Plasma, % ID/g 24 h / Tumor uptake, % ID/g, 24 h: second table; for % ID/g uptake, H460 tumor, 24 h / % ID/g uptake, H460 tumor, 72 h / % ID/g uptake, Kidney, 24 h / % ID/g uptake, Kidney, 72 h / % ID/g uptake, Liver, 24 h / % ID/g uptake, Liver, 72 h / % ID/g uptake, Plasma, 24 h / % ID/g uptake, Plasma, 72 h: 0.5 mg/kg lutetium conjugate
# Experimental: Lutetium accumulation was measured in tumor, plasma and healthy tissues of NCI-H460 tumor-bearing mice (lung cancer). NCJ-H460 tumor bearing mice were dosed with 0.5 mg/kg of lutetium conjugates. At the time points indicated, mice were sacrificed and tumor, liver, kidneys and plasma were taken. All tissues were analyzed for lutetium content by ICP-MS, and lutetium uptake in % ID/g determined by the following equation: […]
# Biodistribution at 24 h and Tumor/Kidney ratio (T/K), Tumor/Liver ratio (T/L), Tumor/Plasma ratio (T/P) are give in the table below.
Structure (SMILES),T/K (Tumor/Kidney ratio),T/L (Tumor/Liver ratio),T/P (Tumor/Plasma ratio),"Kidney uptake, % ID/g 24 h","Liver uptake, % ID/g 24 h","Plasma, % ID/g 24 h","Tumor uptake, % ID/g, 24 h","% ID/g uptake, H460 tumor, 24 h","% ID/g uptake, H460 tumor, 72 h","% ID/g uptake, Kidney, 24 h","% ID/g uptake, Kidney, 72 h","% ID/g uptake, Liver, 24 h","% ID/g uptake, Liver, 72 h","% ID/g uptake, Plasma, 24 h","% ID/g uptake, Plasma, 72 h"
CCNC(=O)c1nnc(-c2cc(C(C)C)c(O)cc2O)n1-c1ccc(OC2CCN(C(=O)CCOCCOCCOCCOCCOCCOCCOCCOCCOCCOCCOCCOCCNC(=O)CN3CCN4CCN5CCN(CC3)CC(=O)[O][Lu]([O]C(=O)C4)[O]C(=O)C5)CC2)cc1 [CMP41],5.10,6.34,8.37,0.86 % ID/g,0.69 % ID/g,0.52 % ID/g,4.39 % ID/g,,,,,,,,
CCNC(=O)c1nnc(-c2cc(C(C)C)c(O)cc2O)n1-c1ccc(CN2CCN(C(=O)C[C@H](NC(=O)CCNC(=O)[C@@H](CO)NC(=O)[C@@H](CO)NC(=O)[C@@H](CO)NC(=O)CC[C@H](C(=O)O)N3CCN4CCN5CCN(CC3)CC(=O)[O][Lu]([O]C(=O)C5)[O]C(=O)C4)C(=O)N[C@H](C)C(=O)N3CCN(Cc4ccc(-n5c(C(=O)NCC)nnc5-c5cc(C(C)C)c(O)cc5O)cc4)CC3)CC2)cc1 [CMP48],3.08,2.33,4.87,1.50 % ID/g,1.99 % ID/g,0.95 % ID/g,4.64 % ID/g,,,,,,,,
CCNC(=O)c1nnc(-c2cc(C(C)C)c(O)cc2O)n1-c1ccc(OC2CCN(C(=O)CCOCCOCCOCCOCCNC(=O)CN3CCN4CCN5CCN(CC3)CC(=O)[O][Lu]([O]C(=O)C4)[O]C(=O)C5)CC2)cc1 [CMP39],3.63,3.67,4.25,0.48 % ID/g,0.47 % ID/g,0.41 % ID/g,1.74 % ID/g,,,,,,,,
CCNC(=O)c1nnc(-c2cc(C(C)C)c(O)cc2O)n1-c1ccc(C2CN(C(=O)CCOCCOCCOCCOCCOCCOCCOCCOCCOCCOCCOCCOCCNC(=O)CN3CCN4CCN5CCN(CC3)CC(=O)[O][Lu]([O]C(=O)C4)[O]C(=O)C5)C2)cc1 [CMP32],2.15,5.26,6.81,1.17 % ID/g,0.48 % ID/g,0.37 % ID/g,2.52 % ID/g,,,,,,,,
CCNC(=O)c1nnc(-c2cc(C(C)C)c(O)cc2O)n1-c1ccc(CC2CCN(C(=O)CCOCCOCCOCCOCCOCCOCCOCCOCCOCCOCCOCCOCCNC(=O)[C@H](CCCCNC(=O)CCCc3ccc(I)cc3)NC(=O)CN3CCN4CCN5CCN(CC3)CC(=O)[O][Lu]([O]C(=O)C4)[O]C(=O)C5)CC2)cc1 [CMP3],3.38,2.39,0.84,5.13 % ID/g,7.26 % ID/g,20.57 % ID/g,17.36 % ID/g,,,,,,,,
CCNC(=O)c1nnc(-c2cc(C(C)C)c(O)cc2O)n1-c1ccc(C2CCN(C(=O)CCOCCOCCOCCOCCOCCOCCOCCOCCOCCOCCOCCOCCNC(=O)CN3CCN4CCN5CCN(CC3)CC(=O)[O][Lu]([O]C(=O)C4)[O]C(=O)C5)CC2)cc1 [CMP33],2.05,3.64,5.11,1.62 % ID/g,0.91 % ID/g,0.65 % ID/g,3.32 % ID/g,,,,,,,,
CCNC(=O)c1nnc(-c2cc(C(C)C)c(O)cc2O)n1-c1ccc(OC2CCN(C(=O)CCNC(=O)[C@@H](CCC(=O)N3CCC(Oc4ccc(-n5c(C(=O)NCC)nnc5-c5cc(C(C)C)c(O)cc5O)cc4)CC3)NC(=O)CCOCCOCCOCCOCCNC(=O)CN3CCN4CCN5CCN(CC3)CC(=O)[O][Lu]([O]C(=O)C4)[O]C(=O)C5)CC2)cc1 [CMP35],0.74,0.50,3.97,11.87 % ID/g,17.67 % ID/g,2.212 % ID/g,8.776 % ID/g,,,,,,,,
CCNC(=O)c1nnc(-c2cc(C(C)C)c(O)cc2O)n1-c1ccc(OC2CCN(C(=O)CCNC(=O)[C@@H](CCC(=O)N3CCC(Oc4ccc(-n5c(C(=O)NCC)nnc5-c5cc(C(C)C)c(O)cc5O)cc4)CC3)NC(=O)CCNC(=O)[C@@H](CCC(=O)O)NC(=O)[C@@H](CCC(=O)O)NC(=O)[C@@H](CCC(=O)O)NC(=O)COCCOCCNC(=O)[C@H](CCCCNC(=O)CC[C@H](C(=O)O)N(CC)CCN3CCN4CCN(C)CC(=O)[O][Lu]([O]C(=O)C4)[O]C(=O)C3)NC(=O)CCCc3ccc(I)cc3)CC2)cc1 [T12],,,,,,,,9.01 % ID/g,5.87 % ID/g,34.00 % ID/g,18.60 % ID/g,3.73 % ID/g,2.03 % ID/g,5.08 % ID/g,0.41 % ID/g
CCNC(=O)c1nnc(-c2cc(C(C)C)c(O)cc2O)n1-c1ccc(CN2CCN(C(=O)C[C@H](NC(=O)CCNC(=O)[C@H](CO)NC(=O)[C@H](CO)NC(=O)[C@H](CO)NC(=O)CC[C@H](C(=O)O)N3CCN4CCN5CCN(CC3)CC(=O)[O][Lu]([O]C(=O)C5)[O]C(=O)C4)C(=O)N[C@H](C)C(=O)N3CCN(Cc4ccc(-n5c(C(=O)NCC)nnc5-c5cc(C(C)C)c(O)cc5O)cc4)CC3)CC2)cc1 [CMP44],3.28,2.34,2.47,1.34 % ID/g,1.88 % ID/g,1.78 % ID/g,4.39 % ID/g,,,,,,,,
CCNC(=O)c1nnc(-c2cc(C(C)C)c(O)cc2O)n1-c1ccc(CC2CCN(C(=O)C[C@H](NC(=O)CC[C@H](C(=O)O)N3CCN4CCN5CCN(CC3)CC(=O)[O][Lu]([O]C(=O)C5)[O]C(=O)C4)C(=O)N[C@H](C)C(=O)N3CCC(Cc4ccc(-n5c(C(=O)NCC)nnc5-c5cc(C(C)C)c(O)cc5O)cc4)CC3)CC2)cc1 [CMP28],0.90,0.79,1.13,8.90 % ID/g,10.10 % ID/g,7.11 % ID/g,8.01 % ID/g,,,,,,,,
CCNC(=O)c1nnc(-c2cc(C(C)C)c(O)cc2O)n1-c1ccc2c(ccn2CCC2CCN(C(=O)CCNC(=O)[C@@H](CCC(=O)O)NC(=O)[C@@H](CCC(=O)O)NC(=O)[C@@H](CCC(=O)O)NC(=O)COCCOCCNC(=O)[C@H](CCCCNC(=O)CC[C@H](C(=O)O)N3CCN4CCN5CCN(CC3)CC(=O)[O][Lu]([O]C(=O)C5)[O]C(=O)C4)NC(=O)CCCc3ccc(I)cc3)CC2)c1 [T7],,,,,,,,7.54 % ID/g,4.05 % ID/g,24.70 % ID/g,13.10 % ID/g,1.88 % ID/g,1.01 % ID/g,4.71 % ID/g,0.42 % ID/g
CCNC(=O)c1nnc(-c2cc(C(C)C)c(O)cc2O)n1-c1ccc(CC2CCN(C(=O)CCC(=O)N[C@@H](CCCCNC(=O)CN3CCN4CCN5CCN(CC3)CC(=O)[O][Lu]([O]C(=O)C4)[O]C(=O)C5)C(=O)N3CCC(Cc4ccc(-n5c(C(=O)NCC)nnc5-c5cc(C(C)C)c(O)cc5O)cc4)CC3)CC2)cc1 [CMP24],2.58,1.07,0.89,4.81 % ID/g,11.53 % ID/g,13.96 % ID/g,12.39 % ID/g,,,,,,,,
CCNC(=O)c1nnc(-c2cc(C(C)C)c(O)cc2O)n1-c1ccc(OC2CCN(C(=O)CCOCCOCCOCCOCCOCCOCCOCCOCCOCCOCCOCCOCCNC(=O)[C@H](CCCCNC(=O)CCCc3ccc(I)cc3)NC(=O)CN3CCN4CCN5CCN(CC3)CC(=O)[O][Lu]([O]C(=O)C4)[O]C(=O)C5)CC2)cc1 [CMP5],3.05,3.17,1.42,3.95 % ID/g,3.80 % ID/g,8.48 % ID/g,12.05 % ID/g,,,,,,,,

# Source: US20260166158A1, “HSP90-BINDING CONJUGATES AND FORMULATIONS THEREOF” (Fusion Pharmaceuticals Inc., priority 2019, published 2026)
